Legend:
[1] = target: T1, PGA(10F) peptide, M. jannaschii MtrA-derived
T1 chain: PGAIDEDPFIIEL

[2] = target: T2, M. mazei PGA(15)-Ub with C-terminal His-tag
T2 chain: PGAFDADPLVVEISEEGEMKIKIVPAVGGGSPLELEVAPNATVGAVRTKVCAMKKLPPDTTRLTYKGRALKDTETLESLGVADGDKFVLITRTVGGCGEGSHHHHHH

[3] = target: T3, (15)KDPGA(10) peptide, M. jannaschii MtrA-derived, without fluorophore
T3 chain: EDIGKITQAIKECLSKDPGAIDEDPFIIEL

[4] = target: T4, (0)KDPGA(10) peptide, M. mazei MtrA-derived
T4 chain: KDPGAFDADPLVVEI

[5] = target: T5, PGA(5) peptide, M. mazei MtrA-derived
T5 chain: PGAFDADP

[6] = target: T6, PGA(10) peptide, M. mazei MtrA-derived
T6 chain: PGAFDADPLVVEI

[7] = target: T7, M. mazei Ub-(5)KDPGA(15) with N-terminal His-tag
T7 chain: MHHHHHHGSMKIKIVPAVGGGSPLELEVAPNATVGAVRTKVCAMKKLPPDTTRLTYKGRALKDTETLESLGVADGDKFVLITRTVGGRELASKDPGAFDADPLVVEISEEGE

[8] = target: T8, (5)KDPGA(10F) peptide, M. mazei MtrA-derived
T8 chain: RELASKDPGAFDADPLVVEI

[9] = target: T9, (15)KDPGA(10F) peptide, M. jannaschii MtrA-derived
T9 chain: T3 chain

[10] = target: T10, PGA(10) peptide, M. jannaschii MtrA-derived
T10 chain: PGAIDEDPFIIEL

B1: M. mazei Adriase with C-terminal His-tag (protein)
chain: TLVIAFIGKNGAVMAGDMREITFEGEKPDREKLEKELYSGSIVTDEEMQKKAEEFGVKITVADCKEKVSERNGVLVGEVSSAEGGVVKKRRLYASAGNFAIAELINTEMTLTSQGKGSNFIAFGNEFTKQVANKCFKDNWTKKSNLQDAVKILILCMETVARKTASVSKQFMIVQTASNADVLKVVEKDRNCGSHHHHHH
B1 was tested, and the “ligase activity with M. jannaschii (15)KDPGA(10) and PGA(10F) peptides, fluorescent product on SDS-PAGE” value [1] was “also M. mazei Adriase showed activity when incubated with the M. jannaschii derived peptides”, the “ligation rate coefficient at 25 µM substrate, ligation of Ub-(5)KDPGA(15) with PGA(15)-Ub” value [2] was 0.74±0.05 sec^-1 at 25 µM and the “ligation rate coefficient at 50 µM substrate, ligation of Ub-(5)KDPGA(15) with PGA(15)-Ub” value [2] was 0.88±0.07 sec^-1 at 50 µM. For the same protein, the “ligation rate coefficient at 100 µM substrate, ligation of Ub-(5)KDPGA(15) with PGA(15)-Ub” value [2] was 0.90±0.14 sec^-1 at 100 µM substrate concentration, the “maximum rate of the protein-protein ligation of Ub-(5)KDPGA(15) with PGA(15)-Ub” value [2] was “a maximum rate of 0.92 ligations per enzyme and second” and the “substrate concentration at the half-maximum rate, ligation of Ub-(5)KDPGA(15) with PGA(15)-Ub” value [2] was “the half-maximum rate is observed at a substrate concentration of 2.2 µM each”. For the same protein, the “ligase activity with M. jannaschii (15)KDPGA(10) and PGA(10F) peptides, fluorescent product on SDS-PAGE” value [3] was “also M. mazei Adriase showed activity when incubated with the M. jannaschii derived peptides”, the “ligase activity with (0)KDPGA(10) as primary and PGA(15)-Ub as secondary substrate, SDS-PAGE time course” value [4] was “No Adriase activity was observed with (0)KDPGA(10) or PGA(5) substrates (n.d.; SEQ ID NO: 531 and 529)” and the “ligase activity with PGA(5) as secondary and Ub-(5)KDPGA(15) as primary substrate, SDS-PAGE time course” value [5] was “No Adriase activity was observed with (0)KDPGA(10) or PGA(5) substrates (n.d.; SEQ ID NO: 531 and 529)”. For the same protein, the “maximum ligation rate, ligation of (5)KDPGA(10F) with PGA(10), Michaelis-Menten fit” value [6] was “a maximum rate of ~2.25 ligations per enzyme and second”, the “substrate concentration at half maximal reaction speed, ligation of (5)KDPGA(10F) with PGA(10)” value [6] was “The half maximal reaction speed is observed at a substrate concentration of ~9 µM each” and the “ligation rate coefficient at 25 µM substrate, ligation of Ub-(5)KDPGA(15) with PGA(15)-Ub” value [7] was 0.74±0.05 sec^-1 at 25 µM. For the same protein, the “ligation rate coefficient at 50 µM substrate, ligation of Ub-(5)KDPGA(15) with PGA(15)-Ub” value [7] was 0.88±0.07 sec^-1 at 50 µM, the “ligation rate coefficient at 100 µM substrate, ligation of Ub-(5)KDPGA(15) with PGA(15)-Ub” value [7] was 0.90±0.14 sec^-1 at 100 µM substrate concentration and the “maximum rate of the protein-protein ligation of Ub-(5)KDPGA(15) with PGA(15)-Ub” value [7] was “a maximum rate of 0.92 ligations per enzyme and second”. The “substrate concentration at the half-maximum rate, ligation of Ub-(5)KDPGA(15) with PGA(15)-Ub” value [7] was “the half-maximum rate is observed at a substrate concentration of 2.2 µM each”, the “maximum ligation rate, ligation of (5)KDPGA(10F) with PGA(10), Michaelis-Menten fit” value [8] was “a maximum rate of ~2.25 ligations per enzyme and second” and the “substrate concentration at half maximal reaction speed, ligation of (5)KDPGA(10F) with PGA(10)” value [8] was “The half maximal reaction speed is observed at a substrate concentration of ~9 µM each”.

B2: M. jannaschii Adriase with C-terminal His-tag (protein)
chain: SLIICYYGKNGAVIGGDRRQIFFRGSEENRKILEEKLYSGEIKSEEELYKLAEKLNIKIIIEDDREKVRKISDSVVCGEVRSLGIDAKRRRVYATKGKCAIVDILNDTVTNQTIKEGFGIVVLGNRFLKKKAEEELKRTAKLFPMMPIQQIEDAIKEIFEKLKWHPTVSKEYDIYSVNKYEKNFEEVIKKDIESLFKYREQLRKQLIDFGKVMSIVNKIVKNGEIGVIKDGKLHLYDDYIAIDKIDPNPKVFKVVDVEGNFKDGDIVVIENGDMKIKGTNEKVTTKYIIIHKGSHHHHHH
In the case of B2, the “maximum ligation rate, recombination of (15)KDPGA(10F) with PGA(10), Michaelis-Menten fit” value [9] is reported as “maximum rate of ~1.4 ligations per enzyme and second”, the “substrate concentration at half maximal reaction speed, recombination of (15)KDPGA(10F) with PGA(10)” value [9] is reported as “The half maximal reaction speed is observed at a substrate concentration of 23 µM each” and the “maximum ligation rate, recombination of (15)KDPGA(10F) with PGA(10), Michaelis-Menten fit” value [10] is reported as “maximum rate of ~1.4 ligations per enzyme and second”. The “substrate concentration at half maximal reaction speed, recombination of (15)KDPGA(10F) with PGA(10)” value [10] was “The half maximal reaction speed is observed at a substrate concentration of 23 µM each”.
